Source: the supplement of paper PMC10126150
± gives the standard deviation of the averaged measurements.

System: ATP
Assay: switch fluorescence ratio, 500 uM ATP over buffer (Cy3 cluster intensity, sum of 5 cycles each) (fold (ratio)); higher = stronger signal-on switching upon ATP binding; sequences stand for … in TCGTCGGCAGCGTCAGATGTGTATAAGAGACAGTTTTTTTTTTTTTTTTTTTTTTTTT…TC
Settings: aptamer strand: ATP DNA aptamer (quencher-CACCTGGGGGAGTATTGCGGAGGAAGG + anchor), 100 nM annealed; ATP concentration: 500 uM
Outline: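 The fluorescence ratio divides summed target-cycle Cy3 intensity by summed buffer-cycle Cy3 intensity for each cluster and is averaged per switch-domain sequence. Cy3-labelled switching-strand clusters on a modified Illumina MiSeq flow-cell were annealed to 100 nM quencher-labelled ATP aptamer, then imaged in selection buffer and again after 15 min with 500 uM ATP at 22 °C. Five such cycles were run, with NaOH stripping and re-annealing between them, and clusters outside 100-1000 RFU were excluded.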
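Further: ATP exposure 15 min at 22 °C before imaging.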

Row | Sequence | switch fluorescence ratio
1 | GAACTCATGA | 0.982 ± 0.012
2 | GAACTGATAA | 1.16 ± 0.2
3 | GAACTGGTAG | 0.992 ± 0.035
4 | GAACTTGGGA | 0.983 ± 0.058
5 | GAACTTGGTT | 1 ± 0.062
6 | GAACTTTTTT | 0.9935 ± 0.0083
7 | GAAGAAAGAG | 1.02 ± 0.022
8 | GAAGACAGTA | 1.01 ± 0.013
9 | GAAGACGTTA | 1.04 ± 0.023
10 | GAAGAGCGGG | 0.978 ± 0.016
11 | GAAGATAGGT | 0.993 ± 0.03
12 | GAAGATAGTG | 0.986 ± 0.03
13 | GAAGATATTA | 1 ± 0.011
14 | GAAGATGGGG | 1.01 ± 0.024
15 | GAAGCAGCAG | 1.1888 ± 0.00054
16 | GAAGCCCAGG | 3.38 ± 2.6
17 | GAAGCGCGTC | 0.998 ± 0.049
18 | GAAGCTCCTG | 0.996 ± 0.0043
19 | GAAGCTTGGT | 0.972 ± 0.041
20 | GAAGGAAGAT | 0.9708 ± 0.0069
21 | GAAGGAAGTG | 1 ± 0.034
22 | GAAGGAATGT | 1 ± 0.022

Row | Sequence | switch fluorescence ratio
23 | GAAGGAGAAG | 0.955 ± 0.0083
24 | GAAGGCAAGG | 1.07 ± 0.011
25 | GAAGGGAGCA | 1.02 ± 0.028
26 | GAAGGGATGT | 1.01 ± 0.042
27 | GAAGGGCAGT | 0.966 ± 0.029
28 | GAAGGGCGTT | 0.98247 ± 0.00082
29 | GAAGGGGACG | 1.006 ± 0.0085
30 | GAAGGGGTGG | 1.01 ± 0.037
31 | GAAGGGGTTC | 1.06 ± 0.084
32 | GAAGGGTAAT | 0.9955 ± 0.0036
33 | GAAGGTAGAG | 0.99 ± 0.042
34 | GAAGGTAGCA | 1.03 ± 0.041
35 | GAAGGTATAC | 1.66 ± 0.18
36 | GAAGGTATGT | 0.96567 ± 1.1e-05
37 | GAAGGTGGGC | 0.962 ± 0.028
38 | GAAGGTTATG | 1 ± 0.015
39 | GAAGTAAGAG | 1.11 ± 0.019
40 | GAAGTAGTCG | 1.06 ± 0.017
41 | GAAGTATGGT | 1.01 ± 0.031
42 | GAAGTCGTAG | 0.96 ± 0.039
43 | GAAGTCGTGC | 0.999 ± 0.023
44 | GAAGTCGTT | 0.973 ± 0.0057

Row | Sequence | switch fluorescence ratio
45 | GAAGTGGGGG | 1.01 ± 0.042
46 | GAAGTTATCG | 0.982 ± 0.022
47 | GAAGTTGCCT | 1.05 ± 0.028
48 | GAAGTTGTCA | 1.02 ± 0.047
49 | GAAGTTGTGT | 0.987 ± 0.031
50 | GAAGTTGTTG | 0.9642 ± 0.0036
51 | GAAGTTTTTG | 0.993 ± 0.017
52 | GAATAAATTT | 1.02 ± 0.069
53 | GAATACTTCG | 1.07 ± 0.016
54 | GAATACTTGG | 1.04 ± 0.054
55 | GAATAGGGCC | 1.01 ± 0.028
56 | GAATAGGTAA | 1.023 ± 0.0038
57 | GAATAGGTAT | 0.99505 ± 0.00011
58 | GAATATCTGG | 0.97 ± 0.011
59 | GAATATGTAG | 0.965 ± 0.044
60 | GAATATTCGC | 0.9958 ± 0.0032
61 | GAATCAGGGA | 1.02 ± 0.015
62 | GAATCATATG | 0.977 ± 0.011
63 | GAATCATTTT | 1.02 ± 0.036
64 | GAATCGGGGG | 0.979 ± 0.044
65 | GAATGACCCG | 1.11 ± 0.012
66 | GAATGCGGAA | 1.0339 ± 0.00078

Row | Sequence | switch fluorescence ratio
67 | GAATGGATGT | 1 ± 0.012
68 | GAATGGCGTA | 1.02 ± 0.046
69 | GAATGGGATA | 1.04 ± 0.084
70 | GAATGGTATA | 0.9925 ± 0.0035
71 | GAATTACTAT | 1.038 ± 0.0087
72 | GAATTATCTA | 0.996 ± 0.022
73 | GAATTCAGGT | 0.994 ± 0.011
74 | GAATTCCAGT | 0.9968 ± 0.0076
75 | GAATTCGGAA | 1.0486 ± 0.00049
76 | GAATTCGGAC | 1.04 ± 0.016
77 | GAATTTATGG | 0.985 ± 0.023
78 | GAATTTATTT | 0.999 ± 0.025
79 | GAATTTGATT | 1.02 ± 0.025
80 | GACAAAAGGT | 1.03 ± 0.013
81 | GACAAACCGC | 1.18 ± 0.032
82 | GACAAATGTG | 0.99815 ± 0.00093
83 | GACAAGGGGG | 0.981 ± 0.065
84 | GACACAAAAG | 1.069 ± 0.0023
85 | GACACGGGCG | 1.044 ± 0.0035
